The record followed here is FireProtDB (doi:10.1016/j.jmb.2011.02.053).

The labels stand for the following.
B1: Guanyl-specific ribonuclease Sa, P05798 (parent)
chain: DVSGTVCLSALPPEATDTLNLIASDGPFPYSQDGVVFQNRESVLPTQSYGYYHEYTVITPGARTRGTRRIITGEATQEDYYTGDHYATFSLIDQTC

In this data set the parent is B1. The conditions noted are these: Kitasatospora aureofaciens; pH 7; Thermal; Fluorescence; MOPS 30mM; transition: 2; reversible: yes; structure 1RGG; whole UniProt chain shown.

On to L21A, for which the “change of melting temperature, mutant - wild type (higher = more stable)” value (shortened to “change of melting temperature, mutant”) is -1.6 °C; the “ddG of mutation (higher = less stable)” value was found to be 0.41 kcal/mol; the “unfolding enthalpy (calorimetric)” value was found to be 85 kcal/mol.

In the case of L19A, the “change of melting temperature, mutant” value is -13.8 °C; the “ddG of mutation (higher = less stable)” value was found to be 3.65 kcal/mol; the “unfolding enthalpy (calorimetric)” value came out at 73 kcal/mol.

Turning to I92V, the “change of melting temperature, mutant” value was -3.9 °C; the “ddG of mutation (higher = less stable)” value is 1 kcal/mol; the “unfolding enthalpy (calorimetric)” value turned out to be 84 kcal/mol.

Consider L8A, for which the “change of melting temperature, mutant” value is -5 °C; the “ddG of mutation (higher = less stable)” value was found to be 1.34 kcal/mol; the “unfolding enthalpy (calorimetric)” value amounted to 89 kcal/mol.

On to I58V, for which the “change of melting temperature, mutant” value is 0.11 °C; the “ddG of mutation (higher = less stable)” value worked out at 0 kcal/mol; the “unfolding enthalpy (calorimetric)” value is 89 kcal/mol.

In the case of I70V, the “change of melting temperature, mutant” value was -3.4 °C; the “ddG of mutation (higher = less stable)” value amounted to 0.94 kcal/mol; the “unfolding enthalpy (calorimetric)” value was found to be 87 kcal/mol.

Turning to I71V, the “change of melting temperature, mutant” value is -0.3 °C; the “ddG of mutation (higher = less stable)” value is 0.13 kcal/mol; the “unfolding enthalpy (calorimetric)” value was 80 kcal/mol.

As to L91A, the “change of melting temperature, mutant” value is -3.2 °C; the “ddG of mutation (higher = less stable)” value came to 0.84 kcal/mol; the “unfolding enthalpy (calorimetric)” value came to 91 kcal/mol.

Regarding I22V, the “change of melting temperature, mutant” value is -5.7 °C; the “ddG of mutation (higher = less stable)” value stood at 1.48 kcal/mol; the “unfolding enthalpy (calorimetric)” value came to 74 kcal/mol.
